Reference: patent US10251926B2, “Extract from indigo naturalis and a process for preparing the same” (Galderma S.A., priority 2015, dated 2019)

Assays:
[1] = system: HaCaT; assay: HaCaT proliferation, MTT assay; assay type: cell-based; settings: Homo sapiens, 72 hours, unit nM
Procedure: HaCaT, a human epidermal keratinocyte line from The Second Military Medical University (SMMU), China, was cultured in DMEM containing 10% FBS.
HaCaT were seeded in 96-well plates at 4×10^4 cells/well overnight. Stausporine or test articles were then added into the culture and incubated at 37° C., 5% CO2 for 72 hours. After removal of the media, the cells in 96-well plates were exposed to 100 μL of MTT (0.5 mg/mL in DMEM containing 10% FBS per well and incubated for 3 hours at 37° C., 5% CO2. Subsequently, the supernatants were removed and 150 μL of DMSO were added to each well. The plate was incubated in the dark for 10 minutes and the absorbance at 492 nm was recorded immediately using Multiskan MK3microplate reader (Thermo Life Sciences, HK, China).
All IC50 values were determined by using Xlfit™ software (version 2.0) from ID
Background was defined in culture with cells treated with DMSO only and was subtracted for IC50 calculations.

[2] = system: ears of mice; assay: Ear inflammation after intradermal injection of IL-22 (study 1, establishment of model); assay type: in vivo, BABL/c mice
Procedure: FIG. 3: Group and dosing for in vivo evaluation of extracts from Qingdai in IL-22 induced psoriasis model. Five studies were designed and outlined in study 1-5, respectively. In Study 1, 100 ng and 500 ng of IL-22 in 20 μL saline, i.d., were used for induction. In study 2-5, 500 ng of IL-22 in […], i.d., were used for induction.
FIG. 4: Figures illustrate ear inflammation after intradermal injection of IL-22. In the studies, ears of mice were injected intradermally and ear thickness was measured on days between injections.
BABL/c mice, male, body weight 19-22 g, purchased from Shanghai SLC AnimalCenter.
Intradermal injection of 20 μL PBS, either alone or containing 100 or 500 ng recombinant mouse IL-22 (eBiosience), was administered into the ears of anesthetized mice using a 30-gauge needle every other day for eleven days. Ear thicknesses were measured before injection on day 0 and thereafter on days without injections. Ear measurements were taken at the center of the ears using a digimatic micrometer caliper (Mitutoyo).
Results of ear thickness data were expressed as mean±S.E.M. AUC of ear swelling was calculated by the ear thickness data from day 0 to day 11, and analyzed by repeated-measured ANOVA methods with JMP® software. Cytokine protein and gene expression data were evaluated with a one-way ANOVA and followed by student's t-test for post-hoc analysis. […]

Molecule	IC50 [1]	ear thickness (d 15) ([2]; study 1, IL-22 100 ng in 20 μL saline i.d., day 15)	ear thickness (d 15) ([2]; study 1, IL-22 500 ng in 20 μL saline i.d., second value of the cell, day 15 as in the lines above)
CN[C@@H]1C[C@H]2O[C@@](C)([C@@H]1OC)n1c3ccccc3c3c4c(c5c6ccccc6n2c5c31)C(=O)NC4 [Staurosporine]	3.18 nM	–	–
IL-22: Recombinant mouse IL-22, intradermal inducer of ear inflammation (protein, UniProt Q9JJY9 34-179, looked up) Interleukin-22: LPVNTRCKLEVSNFQQPYIVNRTFMLAKEASLADNNTDVRLIGEKLFRGVSAKDQCYLMKQVLNFTLEDVLLPQSDRFQPYMQEVVPFLTKLSNQLSSCHISGDDQNIQKNVRRLKETVKKLGESGEIKAIGELDLLFMSLRNACV	–	255.3 ± 15.1 μm	296.3 ± 5.0 μm
